Test results as given in publication PMC3627822.

Tests used:
[1] = molecular target: sochicetin-C (Echis sochureki); assay: ELISA
[2] = molecular target: sochicetin-A (Echis sochureki); assay: ELISA
[3] = molecular target: sochicetin-B (Echis sochureki); assay: ELISA
[4] = molecular target: soluble integrin α2β1 ectodomain (UniProt P17301); assay: ELISA
[5] = molecular target: sochicetin-A αβ heterodimer (Echis sochureki); assay: SDS-PAGE, non-reduced against reduced and partly reduced + MALDI-TOF

With “recombinant GST-tagged integrin α2 A-domain (domain or fragment)” the Kd [1] was 54.5 nM, the Kd [2] was 11.7 nM and the Kd [3] was 17.3 nM.

With sochicetin-A (complex) the IC50 [4] was 59.7 nM.

Work on sochicetin-A αβ heterodimer (complex) yielded a stoichiometry N [5] of 3.

sochicetin-B (complex) was tested, and the IC50 [4] was 32.7 nM.

For sochicetin-C (complex), the IC50 [4] was 1480 nM.
